According to the nanobody polyreactivity screen of Harvey et al. (2022):

Experiment: yeast display, Sf9 membrane polyspecificity reagent, FACS + sequencing; frameworks hold sequencing errors
Method in brief: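 Polyreactivity labels are assigned by the sorting gate from which each nanobody was recovered. The gates were low and high (top ~1%), set on anti-HA fluorescence for expression and streptavidin fluorescence for reagent binding. Before sorting, galactose-induced (36–48 hours) yeast display cells were stained for 1 hour at 4 °C with 10% biotinylated, detergent-solubilized Sf9 membrane reagent.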

Sequence | polyreactivity (PSR sort gate)
QVQLVESGGGLVQAGGSLRLSCAASGSIFDVNAMGWYRQAPGKERELVAAISDSGGSTYYADSVKGRFTISRDNAKNTVYLQMNSLKPEDSAVYYCNADWSWYNYYDFDYWGQGTQVTVSS | low polyreactivity
QVQLVETGGGLVQAGGSLRLSCAPSGSIFRYNAMGWYRQAPGKEREFVAAISQSGSRTYYADSVKGRFTISRDNAKNTVYLQMNSLKPEDTAVYYCAKKYYGVKFYWGQGTQVTVSS | low polyreactivity
QVQLVESGGGLVQAGGSLRLSCAASGIILGKNAMGWYRQAPGKERELVASITSGAGITYYADSVKGRFTISRDTAKNTVYLQMNSLKPEDTAVYYCNTYPYLWGQGTQVTVSS | low polyreactivity
QVQLVESGGGLVQAGGSLRLSCAASGSIFVLNAMGWYRQAPGKERELVAAITGTGDRTYYADSVKGRFTISRDNAKNTVYLQMNSLKPEDTAVYYCAATVGDAYYEYDYWGQGTQVTVSS | low polyreactivity
QVQLVESGGGLVQAGGSLRLSCAATGLTFSTNTMGWYRQAPGKEREFVAAITARGGRTYYADSVKGRFTISRDNAKNTVYLQMNCLKPEDTAVYYCAANAYTYYARIGFDYWGQGTQVTVSS | high polyreactivity
QVQLVESGGGLVQAGGSLRLICAASGSIFFVYDMGWYRQAPGKERELVAAITWSGGRTTYADSVKGRFTISRDNAKNTVYLQMNSMKPEDTAVYYCAKAWPDHWYSRYDYWGQGTQVTVSS | low polyreactivity
QVQLVESGGGLVQAGGSLRLSCAASGNIFVYNAMGWYRQAPGKERELVAAISWTGGSTYYADSVKGRFTISRDNAKNTVYLQMNSLKPEDTAVYYCAKSFGIWHARWLTYDYWGQGTQVTVSS | low polyreactivity
QVQLVESGGGLVQAGGSLRLSCAASGRIFVVYAMGWYRQAPGKERELVAAITYGGGSTHYADSVKGRFTISRDNAKNTVYLQMNSLKPEDTAVYYCAADLFYHSYGYEYWGQGTQVTVSS | low polyreactivity
QVQLVESGGGLVQAGGSLRLSCAASGRTFGYYAMGWYRQAPGKERELVAAINSRGGSTYYADSVKGRFTISRDNAKNTVYLQMNSLKPEDTAVYYCAVVRWRHYIFATYDYWGQGTQVTVSS | high polyreactivity
QVQLVESGGGLVQAGGRLRLSCAASGLIFSVYVMGGYRQAPGKERELVAGITTGGSTKYADSVKGRFTISRDNAKNTVYLEMNSLKPEDTAVYYCAVGKYNYRGSWDYYWGQGTQVTVSS | high polyreactivity
QVQLVESGGGLVQAGGSLRLSCAASGSTFRGYAMGWYRQAPGKERELVATITSGGSTNYADSVKGRFTISRDNAKNTVYLQMNSLKPEDTAVYYCNARWVPRYWKYFPANYGYWGLGTQVTVSS | high polyreactivity
QVQLVESGGGLVQAGGSLRLSCAASGSTSYTNAMGWYRPAPGKERELVAGITRSGDSTYYADSVKGRFTISRDNAKNTVYLQMNSLKPEDTAVYYCAADIGDYWWGYYTGYYYWGQGTQVTVSS | high polyreactivity
QVQLVESGGGLVQAGGSLRLSCAASGIILYYYAMGWYRQAPGKERELVASISRGDSTNYADSVKGRFTISRDNAKNTVYLQMNSLKPEDTAVYCNKDYLPSLYRGFDYWGQGTQVTVSS | low polyreactivity
QVQLVESGGGLVQAGGSLRLSCAASGRTFGGYAMGRYRQAPGKDRQLVASISWSGGSTYYADSVKGRFTISRDNAKNTVYLQMNSLKPEDTAVYYCAARPYLSRSTRMDYWGQGTQVTVSS | low polyreactivity
QVQLVESGGGLVQAGGSLRLSCAASGIIFYQYAMGWYRQAHGKERELVAAISSRGGSTYYADSVKGRFTISLDNAKNTVYLLMNSLKPEDTAVYYCAAGSTGSTDGYWGQGTQVTVSS | high polyreactivity
QVQLVESGGVLVQAGGSLRLSCADSGRTFYTNAMGWYRQAPGKERELVAAITGSDGNTYYADSVKGRFTISRENAKNTVYLQMISLKAEDTAVYYGFDYWVQGTQVTVSS | low polyreactivity
QVQLVESGGGLVQAGGSLRLSCAASGNTLWRNAMGWYRQAPGKERELVATISSVGTYYADSVKGRFTISRDNAKNSVYFQMNSLKPEDTAVYYCAARIWAFYSRRYFWGQGTQVTVSS | high polyreactivity
QVQLVESGGGLVQAGGSLRLSCAASGRIFRYYAMGWYRQAPGKERELVATISSSGGSTYYADSVKGRFTISRDNAKNTVYLQMKSLKPEDTAVYYCAADWYGYRQFHGYYWGQGTQVTVSS | high polyreactivity
QVQLVESGGCLVQAGGRLRLSCAASGRIFRGYAMGWYRQAPGKERELVARITSGGRTYYADSVKGRFTISRDNAKNTVYLQMNSLKPEDTAVYYCAAPPSVRTRKAYYYWGQGTQVTVSS | high polyreactivity
QVQLVESGGGLVQAGGSLRLSCAASGRILWGNTMGWYRQAPGKERELVAAISWNGGGTYYADSVKGRFTISRDNAKNTVYLQMNSLKPEDTAVYYCATRYTYSTDTGYDYWGQGTQVTVSS | low polyreactivity
QVQLVESGGGLVQAGGSLRLSCAASGSTFNWYAMGWYRQAPGKERELVASIRISGGSTYYADSVKGRFTISRDNAKNTVYLQMNSLKPEDTAVYYCNAKLFIRWFTYDYLGQGTQVTVSS | low polyreactivity
QVQLVESGGGLVQAGGSLRLSSAASGRTFPSYAMGWYRQAPGKERELVAAISSSGGSTYYADSVKGRFTISRDNAKNTFYLQMNSLKPEDTAVYYCNKQFPYAKYYIMGYWGQGTQVTVSS | high polyreactivity

Sequence | polyreactivity (PSR sort gate)
QVQLVESGGGLVQAGGSLRLSCAASGRIFSTYAMGWYRQAPGKERELVAAINSIGGRTYYADSVKGRFTISRDNAKNTVYLQMNSLKPEDTAVYYCAAGYRTRRGLGYYYWGQGTQVTVSS | high polyreactivity
QFQLVESGGGLDQAGGSLRLSCAATGSTFTSYAMGWYIQAPGKERELVAAITSRGGTYYADSVKGRFTISRDNAKNTVYLQMNSLKPEDTAVYYCAARATYKKYPYVKWYDYWGQGTQVTVSS | high polyreactivity
QVQIVESGGGLVQAGGSLRLSCAASGSTFYGYAMGWYRQAPGKERELVAVINYRGDRTYFADSVKGRFTISRDNAKNTVYLQMNSLKPEDTAVYYCAARYRVYYLAGYEYWGQGTQVTVSS | high polyreactivity
QVQLVESGGGLVQAGGSLRLSCAASGFTFGGYAMGWYRQAPGKERELVAAITGSGGNTFYADSVKGRFTISRDNAKNTVYLQMNSLKPEDTAVYYCAALAPYIGGVDYDYWGQGTQVTVSS | low polyreactivity
QVQLVESGGGLVQAGGSLRLICAASGSTFYTYAMGWYRQAPGKERELVAAITYSGGTTYYADSVKGRFTISRDSAKNTVYLQMNSLKPEDTAFYYCNTRSYYYSDDYWGQGTQVTVSS | low polyreactivity
QVQLVESGGGLVQAGGSLRLSCAASGRIFKYYAMGWYRQAPGKERELFAAISRGGSTYYADSVKGRFTISRDNAKNTVYLQMNSLKPEDTAVYYCNAYRHGYVAYRRYDYWGQGTQVTVSS | high polyreactivity
QVQLVESGGGLVQAGGSLRLSCAASGSIFLYYAMGWYRQAPGKERELVASISSGGSTNYADSVKGRFTISRDNAKNTVYLQMNSLKPEDTAVYYCAARPYGGGRRSIYYYWGQGTQVTVSS | high polyreactivity
QVQLGESGGGLVQAGGSLRLTCAASGLIFYRNARGWYRQAPGKERELVAAISKNGGNTYYADSVKGRFTISRDYAKNTVYLQMNSLKPEDTAVYYCAARELYGPFGYWGQGTQVTVSS | high polyreactivity
QVQLVESGGGLVQAGGSLRLSCAASGSNFTYYAMGWYRQAPGKERELVAAISYSGGTTYYADSVKGRFTISRDNAKNTVYLQMNSLKPEDTAVYYCNVDADYESQWLSVGYDYWGQGTQVTVSS | low polyreactivity
QVQLVESGGGLVQAGGSLRLSCAASGNTFDRNAMGWYRQAPGKERELVAGISWRGGSTYYADSVKGRFTISRDNAKNTVYLQMNSLKPEDTAVYYCAAQRRYSTITGYGSWGQGTQVTVSS | high polyreactivity
QFQLVESGGALVQAGGSLRLSCAASGSTFTGYTMGWYRQAPGKERELVAAINWSGGRTYYADSVKGRFTISRDNAKNTVYLQMNSLKPDDTAVYYCAVRSRSLGGYLGQGTQVTVSS | high polyreactivity
QVQLVESGGGLVHAGGSLRLSCAASGSIFDYYAMGWYRQAPGKERELVAAISTSTSSTYYADSVKGRFTISRDNAKNTVCLQMNSLKPEDTAVYYCAAEGESQPESPGYDYWGQGTQVTVSS | low polyreactivity
QVQLVESGGGLVQAGGRLRLRCDPSGLTSYYAMGWYRQAPGKERELVSRIRSRSGSTYYADSVKGRFTISRDNAKNTVYLQMNSLKPEDTAVYYCNARQLLYAIRDSWGQVTQVTVSS | high polyreactivity
QVQLVESGGGLVQAGGSLRLSCAASGSIFLDYAMGWYRQAPGKERELVATITSGSSTYADSVKGRFTISRDNAKNTVYLQMNSLKPEDTAVYYCNVKLIVRYWNPSPYDYWGQGTQVTVSS | low polyreactivity
QVQLVESGGGLVQAGGSLRLSCAASGFTFLRYAMGWYRQAPGKERELVAAISTSGGRTYYADSVKGRFTISRDNAKNTVYLQMNSLKPEDTAVYYCNAAGGYRTSPSDYWGQGTQVTVSS | high polyreactivity
HVQLGESGGGLVQAGGSLRLSCAASGFIFTAYVMGWYRQAPGKERELVAAISRSGGSTYYADSVKGRFTISRDNAKHTVYLQMNSLKPEDTAVYYCAKLRRDARYDYWGQGTQVTVSS | high polyreactivity
QVQLVESGGGLVQAGGSLRLSCAASGSTFHDYAMGWYRQAPGKEREFVAAISVRGGSTYYADSVKGRFTISRDNAKNTVYLQMNSLKPEDTAVYYCNKLSSDSYNYWGQGTQVTVSS | high polyreactivity
QVQLVESGGGLVQAGGSLRLSCAASGLTFRGYTMGWYRQAPGKERELVARITYSGGSTYYADSVKGRFTISRDNAKNTVYLQMNSLKPEDTAVYYCAKEIWRHWTGDYWGQGTQVTVSS | high polyreactivity
QVQLVESGGGLVQAGGSLRLSCAASGRTFINYAMGWYRQAPGKERELVAAITTGGRTNYADSVKGRFTISRDNAKHTVYLQMNSLKPEDTAVYYCAADRYYWGRYTLNYWGQGTQVTVSS | low polyreactivity
QVQLVESVGGLVQAGGSLRLSCAASGFTFTRYAMGWYRQAPGKERELVAAISSGGDTYYADSVKGRFTISRDNAKNTVYLQMNSLKPEDTAVYYCAADQSSLDYGNDYWGQGTQVTVSS | low polyreactivity
QVQLVESGGGLVQAGGSLRLSCADSGRTLGVYAMRWYRQAPGKERELVASISFSGGRTYYADSVKGRFTISRDNAKNTVYLQMNSLKPEDTAVYYCAAGGRVRYQTKYRYGYDYWGQGTQVTVSS | low polyreactivity
